Assay results published in patent US20240124575A1 (SIMCERE ZAIMING PHARMACEUTICAL, published 2024).
One block for each binder: values may come before it.

Legend:
human CD33-C2-his = molecular target: T1, human CD33-C2-his (human, UniProt P20138 136-260); assay: ELISA on coated human CD33-C2-his
T1 construct: expressed in HEK293E; also called hCD33-C2-his; human CD33 protein C2-domain; not shown: His tag

[1] = molecular target: T2, human CD33-His (extracellular domain Asp 18-His 259) (human, UniProt P20138 18-259); assay: competitive ELISA vs coated S006-NB146-46 2ug/mL; soluble 25ug/ml
T2 construct: range 18-259; bought protein; also called hCD33-his; human CD33 protein; not shown: His tag
Protocol: (§1) VHH antibodies and control antibodies with known epitopes were subjected to epitope classification with competitive ELISA. ELISA plates were coated with 2 μg/mL antibodies according to the method in Example 5.1; the human CD33-his protein was subjected to a gradient dilution from 30 μg/mL, and EC80 values (Tables 26-27) were calculated. ELISA plates were coated with 2 μg/mL antibodies; after 25 µg/mL of antibodies to be tested were added, a human CD33-his protein having an EC80 concentration corresponding to each of the antibodies to be tested was then added for incubation for 2 h. The plates were washed 5 times with PBS, then HRP-labeled anti-His antibodies (purchased from GenScript, Cat. No. A00612) were added for incubation for 1 h, and the plates were washed 5 times. A TMB substrate was added at 50 μL/well and incubated at room temperature for 10 min, then a stop solution (1.0 M HCl) was added at 50 μL/well. OD_{450 nm} values were read using an ELISA plate reader (Insight, purchased from PerkinElmer), and the competition rate between the antibodies was calculated according to the OD_{450 nm} values using a formula. The results are shown in FIGS. 12A-12B, the higher the value of the competition rate, the closer the epitopes to which two antibodies bind.

[2] = molecular target: T2, human CD33-His (extracellular domain …); assay: competitive ELISA vs coated SGN-33 2ug/mL; soluble 25ug/ml
Protocol: as §1

human CD33-V-his = molecular target: T3, human CD33-V-his (human, UniProt P20138 18-144); assay: ELISA on coated human CD33-V-his
T3 construct: expressed in HEK293E; also called hCD33-V-his; human CD33 protein V-domain; not shown: His tag

[3] = molecular target: T2, human CD33-His (extracellular domain …); assay: competitive ELISA vs coated S006-NB147-220 3ug/mL; soluble 25ug/ml
human CD33-his protein [4] = molecular target: T4, human CD33-his protein (human, UniProt P20138 18-259); assay: SPR (Biacore), antibody captured on Protein A chip, human CD33-his analyte
T4 construct: range 18-259; bought protein; also called hCD33-his; recombinant human CD33-his; not shown: His tag
Protocol: The sample and running buffer was HBS-EP+ (10 mM HEPES, 150 mM NaCl, 3 mM EDTA, 0.05% surfactant P20) (GE Healthcare; BR-1006-69). The flow cell was set at 25° C. The sample block was set at 16° C. Both were pretreated with the running buffer. In each cycle, first, the antibody to be tested was captured using the Protein A chip, and then a single concentration of CD33 antigen protein was injected. The association and dissociation processes of the antibody with the antigen protein were recorded, and finally, the chip was regenerated using Glycine pH 1.5 (GE Healthcare; BR-1003-54). The association was determined by injecting different concentrations of recombinant human CD33-his in the solution and maintaining for 240 s, wherein the flow rate was 30 μL/min, and the protein was diluted in a 1:1 dilution ratio from 200 nM to obtain 5 concentrations in total. The dissociation phase was monitored for up to 600 s and triggered by switching from the sample solution to the running buffer. The surface was regenerated by washing with 10 mM glycine solution (pH 1.5) at a flow rate of 30 μL/min for 30 s. The difference in bulk refractive index was corrected by subtracting the responses obtained from the […]. Blank injections were also subtracted (=double reference). To calculate the apparent KD and other kinetic parameters, the Langmuir 1:1 model was used.

human CD33-his protein [5] = molecular target: T4, human CD33-his protein; assay: competition ELISA, coated human CD33-his, vs Biotin-C33B904 at EC80; antibody 250.00 nM
Protocol: ELISA plates were coated with 2 μg/mL human CD33-his protein according to the method in Example 5.1; the Biotin-C331B904 antibody was subjected to a gradient dilution from 15 μg/mL, and EC80 values (0.18 μg/mL) were calculated. ELISA plates were coated with 2 μg/mL human CD33-his protein; starting from 40 μg/mL, the VHH antibodies to be tested were diluted in a 1:2 dilution ratio to obtain seven concentrations and added to the ELISA plates, and then Biotin-C331904 antibodies with the EC80 concentrations were added for incubation for 2 h. The plates were washed 5 times with PBS and then […] (purchased from Sigma, Cat. No. S2438) were added for incubation for 1 h, and the plates were washed 5 times. A TMB substrate was added at 50 μL/well and incubated at room temperature for 10 min, then a stop solution (1.0 M HCl) was added at 50 μL/well. OD_{450 nm} values were read using an ELISA plate reader (Insight, purchased from PerkinElmer). Then, analysis was performed by software (GraphPad Prism8), and data were fitted for curve plotting. The results are shown in FIGS. 13A-13B and Tables 28 and 29.

T2 sequence (P20138 18-259 limits assumed): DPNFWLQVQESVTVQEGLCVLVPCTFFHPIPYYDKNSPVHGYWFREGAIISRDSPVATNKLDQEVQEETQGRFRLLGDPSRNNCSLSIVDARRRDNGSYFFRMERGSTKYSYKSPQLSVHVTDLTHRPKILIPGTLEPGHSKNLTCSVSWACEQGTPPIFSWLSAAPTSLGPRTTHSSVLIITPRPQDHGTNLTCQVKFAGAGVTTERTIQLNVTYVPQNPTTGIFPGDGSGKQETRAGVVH
T4 sequence (P20138 18-259 limits assumed): as above
T3 sequence (P20138 other isoform, or with tags, fused parts or gaps limits assumed): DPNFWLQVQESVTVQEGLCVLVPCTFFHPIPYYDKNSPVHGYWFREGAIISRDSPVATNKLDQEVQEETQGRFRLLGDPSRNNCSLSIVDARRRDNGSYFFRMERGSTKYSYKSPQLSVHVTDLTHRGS
T1 sequence (P20138 other isoform, or with tags, fused parts or gaps limits assumed): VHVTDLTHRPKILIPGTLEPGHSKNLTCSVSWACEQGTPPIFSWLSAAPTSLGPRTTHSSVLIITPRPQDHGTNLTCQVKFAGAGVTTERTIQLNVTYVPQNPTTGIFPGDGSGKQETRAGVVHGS

- EC50 (read off the curve) (human CD33-C2-his): ~0.4 nM
- inhibition rate [1]: 92%
- inhibition rate [2]: 17%
- binding result (human CD33-V-his): no binding (tested: 100 nM)
- inhibition rate [3]: 98%
B1: C33B904 hIgG1 (antibody, V domains shown)
VH: EVQLVESGGGLVQPGRSLRLSCAASGFTFDDYAMHWVRQAPGKGLEWVSGIGWSGGSIVYADSVKGRFTISRDNAKNSLYLQMNSLRAEDTALYYCAKDSPYGDFFDYWGQGTLVTVSS
VL: DIVMTQSPDSLAVSLGERATINCKSSQTVFYSSNNKNYLAWYQQKPGQPPKLLISWASTRKSGVPDRFSGSGSGTDFTLTVSSLQAEDVAVYYCQHYYSTPYTFGQGTKLEIKR
notes: intact human IgG1; variable regions from US20190382481A1; also called C33B3904; C331B904

- Kd (human CD33-his protein [4]): 0.079 nM
- koff (human CD33-his protein [4]): 6.54e-05 s⁻¹
- kon (human CD33-his protein [4]): 828000 M⁻¹ s⁻¹
- OD450 (Biotin-C33B904 signal) (human CD33-his protein [5]): 0.1
B2: C33B904 (antibody, human IgG1, kappa, V domains shown)
VH: B1 VH
VL: B1 VL
notes: control antibody, intact human IgG1 form; variable regions from US20190382481A1; also called C33B904 hIgG1; C331B904
